Measured values from US20090068174.

T1: D-val-leu-lys-pNA
T1 chain: VLK

T2: human recombinant IFN-γ, P01579
T2 chain: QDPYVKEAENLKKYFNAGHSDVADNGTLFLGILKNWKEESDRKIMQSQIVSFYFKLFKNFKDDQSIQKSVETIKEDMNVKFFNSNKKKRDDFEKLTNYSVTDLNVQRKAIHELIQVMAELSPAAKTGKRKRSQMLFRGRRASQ

T3: mouse recombinant IFN-γ, P01580
T3 chain: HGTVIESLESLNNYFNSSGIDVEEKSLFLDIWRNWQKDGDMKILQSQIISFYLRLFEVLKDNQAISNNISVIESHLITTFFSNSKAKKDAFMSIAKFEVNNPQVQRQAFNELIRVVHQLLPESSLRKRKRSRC

T4: mouse recombinant TNF-α, P06804
T4 chain: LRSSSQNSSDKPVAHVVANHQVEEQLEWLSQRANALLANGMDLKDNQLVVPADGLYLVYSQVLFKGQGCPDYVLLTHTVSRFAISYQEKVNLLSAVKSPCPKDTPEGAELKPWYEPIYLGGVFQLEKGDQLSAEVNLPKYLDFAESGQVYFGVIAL


What was measured:
D-val-leu-lys-pNA = target: T1, D-val-leu-lys-pNA
[1] = target: T2, human recombinant IFN-γ, P01579
[2] = target: human recombinant TNF-α, P01375
human recombinant TNF-α, P01375, sequence (P01375 77-233): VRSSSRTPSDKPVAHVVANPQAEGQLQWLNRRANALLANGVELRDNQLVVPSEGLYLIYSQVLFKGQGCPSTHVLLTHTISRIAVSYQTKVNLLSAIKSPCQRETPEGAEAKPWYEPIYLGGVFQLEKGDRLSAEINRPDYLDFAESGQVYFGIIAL

[3] = target: T3, mouse recombinant IFN-γ, P01580
[4] = target: T4, mouse recombinant TNF-α, P06804

| Protein | Specific activity: hydrolysis of Val-leu-lys-pNA (absorbance at 405 nm) (mOD/min/µg protein) (D-val-leu-lys-pNA) | Proteolysis by Western blotting [1] | Proteolysis by Western blotting (50 ng cytokine, 2.5-10 ng protease, overnight at 37° C.) [2] | Specific activity: hydrolysis of salmon protamine (ninhydrin assay) (nmoles Leucine/30 min./µg protein) (salmon protamine sulfate) | Proteolysis by Western blotting [3] | Proteolysis by Western blotting [4] |
| --- | --- | --- | --- | --- | --- | --- |
| Aspergillus oryzae deuterolysin (neutral protease II) (protein) TEVTDCKGDAESSLTTALSNAAKLANQAAEAAESGDESKFEEYFKTTDQQTRTTVAERLRAVAKEAGSTSGGSTTYHCNDPYGYCEPNVLAYTLPSKNEIANCDIYYSELPPLAQKCHAQDQATTTLHEFTHAPGVYQPGTEDLGYGYDAATQLSAQDALNNADSYALYANAIELKC | 2.3 | both deuterolysin and 26 kDa protease cleave human IFN-γ | deuterolysin was without significant effect | 677 |  |  |
| Aspergillus oryzae 26 kDa protease (protein) HASADAWASSKAISSTSSPSSFKMRFISVSSLLLALAPALNAVPVEVAGSAQGLDVTLSQVGNTRIKAWKNTGSEDVTFVHLNFFKDAAPVQKVSLFRNATEVQFQGIKQRLITEGLSDDALTTLAPGATIEDEFDIASTSDLSEGGTITINSNGLVPITTDNKVTGYIPFTSNELSIDVDAAEAASVTQAVKILERRTKVTSCSGSRLSALQTALRNTVSLARAAATAAQSGSSSRFQEYFKTTSSSTRSTVAARLNAVANEAASTSSGSTTYYCSDVYGYCSSNVLAYTLPSYNIIANCDLYYSYLPALTSTCHAQDQATTTLHEFTHAPGVYSPGTDDLGYGYSAATALSASQALLNADTYALFANAVNLNC | 2.1 | both deuterolysin and 26 kDa protease cleave human IFN-γ | Alkaline protease and, to a lesser extent, 26 kDa protease each produced a similar pattern of cleavage | 679 |  |  |
| Aspergillus oryzae alkaline protease (protein) GLTTQKSAPWGLGSISHKGQQSTDYIYDTSAGEGTYAYVVDSGVNVDHEEFEGRASKAYNAAGGQHVDSIGHGTHVSGTIAGKTYGIAKKASILSVKVFQGESSSTSVILDGFNWAANDIVSKKRTSKAAINMSLGGGYSKAFNDAVENAFEQGVLSVVAAGNENSDAGQTSPASAPDAITVAAIQKSNNRASFSNFGKVVDVFAPGQDILSAWIGSSSATNTISGTSMATPHIVGLSLYLAALENLDGPAAVTKRIKELATKDWKDVKGSPNLLAYNGNA | 117 | the protease did not cleave human IFN-γ | Alkaline protease and, to a lesser extent, 26 kDa protease each produced a similar pattern of cleavage | 951 | alkaline protease (AP) purified from the protease powder prepared according to Example 1 evidenced the same substrate specificity | alkaline protease (AP) purified from the protease powder prepared according to Example 1 evidenced the same substrate specificity |
